Laboratory results as given in publication PMC11931385, “Structural and functional analysis of cancer-associated missense variants in the retinoblastoma protein pocket domain” (The Journal of Biological Chemistry, 2025).
No end group written: not given here. TMR = tetramethyl rhodamine dye

T1: Rb^P R741C (human, UniProt P06400 380-788, R741C)
T1 construct: also called variant 68
T1 sequence (looked up): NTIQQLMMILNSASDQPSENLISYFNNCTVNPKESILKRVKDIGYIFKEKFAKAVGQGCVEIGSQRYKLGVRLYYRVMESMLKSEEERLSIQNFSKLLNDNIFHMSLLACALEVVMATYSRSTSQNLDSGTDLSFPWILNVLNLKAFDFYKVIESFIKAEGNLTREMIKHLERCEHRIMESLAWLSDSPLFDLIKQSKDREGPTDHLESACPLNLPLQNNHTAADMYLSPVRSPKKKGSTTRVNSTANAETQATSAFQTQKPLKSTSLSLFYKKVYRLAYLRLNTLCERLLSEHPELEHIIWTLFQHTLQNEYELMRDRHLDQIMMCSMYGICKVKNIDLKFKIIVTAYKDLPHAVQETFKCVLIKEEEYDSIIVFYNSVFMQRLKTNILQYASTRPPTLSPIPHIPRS

T2: Rb^P D697E (human, UniProt P06400 380-788, D697E)
T2 construct: also called variant 62
T2 sequence (looked up): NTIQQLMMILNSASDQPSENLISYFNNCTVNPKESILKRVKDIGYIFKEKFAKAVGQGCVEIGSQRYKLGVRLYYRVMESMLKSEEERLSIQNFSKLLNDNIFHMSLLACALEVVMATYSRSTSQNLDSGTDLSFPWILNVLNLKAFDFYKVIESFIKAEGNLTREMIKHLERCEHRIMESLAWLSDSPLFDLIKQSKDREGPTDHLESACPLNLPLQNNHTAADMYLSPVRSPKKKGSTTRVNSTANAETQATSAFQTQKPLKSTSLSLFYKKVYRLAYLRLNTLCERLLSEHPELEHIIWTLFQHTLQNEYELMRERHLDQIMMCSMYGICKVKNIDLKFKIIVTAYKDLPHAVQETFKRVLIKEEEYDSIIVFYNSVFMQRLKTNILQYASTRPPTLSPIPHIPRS

T3: Rb^P S671F (human, UniProt P06400 380-788, S671F)
T3 construct: also called variant 53
T3 sequence (looked up): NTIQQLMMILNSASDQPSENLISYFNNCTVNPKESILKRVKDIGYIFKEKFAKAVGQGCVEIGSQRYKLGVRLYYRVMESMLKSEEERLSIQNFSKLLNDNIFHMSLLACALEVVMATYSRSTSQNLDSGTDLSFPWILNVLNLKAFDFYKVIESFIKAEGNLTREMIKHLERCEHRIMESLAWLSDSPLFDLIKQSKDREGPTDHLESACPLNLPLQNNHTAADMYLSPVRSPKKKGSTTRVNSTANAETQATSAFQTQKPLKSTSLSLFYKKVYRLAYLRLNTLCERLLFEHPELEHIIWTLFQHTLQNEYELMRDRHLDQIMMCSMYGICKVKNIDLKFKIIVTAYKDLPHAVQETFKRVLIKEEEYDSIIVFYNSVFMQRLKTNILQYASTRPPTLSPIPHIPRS

T4: Rb^P R621C (human, UniProt P06400 380-788, R621C)
T4 construct: also called variant 41
T4 sequence (looked up): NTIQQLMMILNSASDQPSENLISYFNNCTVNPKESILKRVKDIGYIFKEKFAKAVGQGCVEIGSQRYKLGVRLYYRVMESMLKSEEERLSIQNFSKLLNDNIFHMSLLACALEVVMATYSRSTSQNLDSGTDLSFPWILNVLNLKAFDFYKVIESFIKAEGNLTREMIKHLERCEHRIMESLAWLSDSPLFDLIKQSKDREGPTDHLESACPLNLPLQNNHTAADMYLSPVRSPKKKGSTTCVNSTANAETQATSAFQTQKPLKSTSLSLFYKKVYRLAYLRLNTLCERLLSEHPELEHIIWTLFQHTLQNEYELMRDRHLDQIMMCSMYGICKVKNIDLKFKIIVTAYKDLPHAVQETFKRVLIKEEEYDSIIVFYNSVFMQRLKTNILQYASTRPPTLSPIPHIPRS

T5: Rb^P V754G (human, UniProt P06400 380-788, V754G)
T5 construct: also called variant 73
T5 sequence (looked up): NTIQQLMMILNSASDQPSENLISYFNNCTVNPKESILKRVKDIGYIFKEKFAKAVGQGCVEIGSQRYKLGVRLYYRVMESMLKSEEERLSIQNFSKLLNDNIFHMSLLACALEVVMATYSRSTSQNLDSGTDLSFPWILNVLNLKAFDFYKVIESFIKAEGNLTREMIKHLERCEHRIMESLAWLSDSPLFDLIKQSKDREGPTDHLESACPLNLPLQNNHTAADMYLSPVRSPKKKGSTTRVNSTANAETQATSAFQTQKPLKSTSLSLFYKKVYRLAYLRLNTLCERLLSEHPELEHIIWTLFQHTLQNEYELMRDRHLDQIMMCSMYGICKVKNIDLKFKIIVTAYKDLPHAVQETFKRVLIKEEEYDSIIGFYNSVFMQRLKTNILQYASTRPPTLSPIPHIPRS


Assays:
Test in all cases: fluorescence polarisation; 37 °C, after the 25 °C reading ramped over 7 min to 37 °C and 2 min incubation; unlabeled Rb^P against 1.5 nM TMR-E2F1^TD or 7.5 nM TMR-E7^LxCxE; 25 mM Tris pH 8.0, 200 mM NaCl, 1 mM DTT, 0.1% Tween-20; apparent Kd
Details in all cases: both partners purified
Rb^P R741C = target: T1, Rb^P R741C
Rb^P D697E = target: T2, Rb^P D697E
Rb^P S671F = target: T3, Rb^P S671F
Rb^P R621C = target: T4, Rb^P R621C
Rb^P V754G = target: T5, Rb^P V754G

Binder	Kd (Rb^P R741C) [nM]	Kd (Rb^P D697E) [nM]	Kd (Rb^P S671F) [nM]	Kd (Rb^P R621C) [nM]	Kd (Rb^P V754G) [nM]
{TMR}-GEGIRDLFDCDFGDLTPLD (also called E2F^TD; source: synthetic peptide, bought: GenScript) [TMR-E2F1^TD, peptide of the E2F1 transactivation domain]	64	129	46	43	34
DLYCYEQLN (also: TMR label, position not given here, source: synthetic peptide, bought: GenScript) [TMR-E7^LxCxE, LxCxE peptide of the E7 oncoprotein from HPV]	23	46	19	30	15
